Values quoted from earlier work, collected in US5389611A, “Lactoferrin hydrolyzate for use as an antibacterial agent and as a tyrosinase inhibition agent” (priority 1990, dated 1995).
Like-named read-outs stand apart in the source and are kept apart here.

Columns and labels:
[1] = test system: coliform bacillus (Escherichia coli), staphylococcus and other enterobacteria; settings: Nonnecke and Smith 1984
[2] = Ford et al 1977

## lactoferrin
[1]
  concentration having antibacterial activity: 0.5 to 30 mg/mL
[2]; heating at 62.5° C. for 30 minutes
  antibacterial activity after heating: almost completely suppressed
[2]; heating at 70° C. for 15 minutes
  antibacterial activity after heating: complete deactivation
